# Assay results reported in paper PMC9103184, “Kunitz-Type Peptides from Sea Anemones Protect Neuronal Cells against Parkinson’s Disease Inductors via Inhibition of ROS Production and ATP-Induced P2X7 Receptor Activation” (International Journal of Molecular Sciences, 2022).
# pKi: −log10 of the molar value. Read-outs that look alike come from different tables or passages of the source.
# How the values were obtained:
# [1] = Thermal stability by CD spectroscopy; type: physicochemical
# Experimental: Figure 5 Evaluation of the thermal stability of peptides in deionized water via CD spectroscopy. Recordings of the CD spectra of HCIQ2c1 (a), HMIQ3c1 (b), HCIQ4c7 (c), and HCIQ1c9 (d) were conducted in the far UV region (190–240 nm) after the solutions were incubated over a temperature range from 25 °C to 100 °C for 20–25 min.
# Circular dichroism (CD) spectra were recorded on a Chirascan-Plus CD spectropolarimeter (Applied Photophysics, Leatherhead, UK) in quartz cuvettes with an optical path length of 0.1 cm for the peptide spectrum region. The peptides were dissolved in deionized water ([…]) and incubated at temperatures ranging from 25 °C to 100 °C for 20–25 min before recording the CD spectra. The secondary structure elements were calculated using the Provencher–Glockner method using advanced Provencher calculation programs from the CDPro software package (Leatherhead, UK).
# Neuro-2a cells [2] = experiment: Paraquat-induced toxicity, cell viability (MTT); type: cell-based, murine; conditions: peptide up to 10 μM, 600 μM paraquat, 24 h
# Experimental: The murine neuroblastoma cell line Neuro-2a was purchased from ATCC (CCL-131, American Type Culture Collection, Manassas, VA, USA). Cells were cultured in Dulbecco’s modified Eagle’s medium (DMEM) (Biolot, St. Petersburg, Russia) containing 10% fetal bovine serum (Biolot, St. Petersburg, Russia) and 1% penicillin/streptomycin (Biolot, St. Petersburg, Russia) according to ATCC’s instruction. Cells were incubated at 37 °C in a humidified atmosphere containing 5% CO2 (v/v). Before the experiments, Neuro-2a cells at a concentration of 1 × 10^4 cells/well were dispensed into 96-well plates and incubated for 24 h in a humidified atmosphere containing 5% CO2 to allow cell attachment.
# Then, 20 μL of substance solution was loaded into the cells and incubated for 24 h followed by replacement of the medium with tested substances and 100 μL of fresh medium. Then, 10 μL of MTT (3-(4,5-dimethylthiazol-2-yl)-2,5- diphenyltetrazolium bromide) (Sigma-Aldrich, St. Louis, MO, USA) stock solution (5 mg/mL) was added to each well and the microplate was incubated for 4 h. […] The absorbance of the converted dye formazan was measured using a Multiskan FC microplate photometer (Thermo Scientific, Waltham, MA, USA) at a wavelength of 570 nm. […] Cytotoxic activity was expressed as the percentage of cell viability. […]
# Neuro-2a cells [3] = experiment: Paraquat-induced ROS formation (H2DCF-DA); type: cell-based, murine; conditions: peptide 0.01 μM, 600 μM paraquat 3 h, means ± SE
# Experimental: (§1) Figure 8 Effects of the peptides on intracellular ROS and NO formation. The effects of the peptides on ROS formation into Neuro-2a cells treated by 600 μM paraquat (a) and 10 μM rotenone (b). The effects of peptides on NO formation into the cells treated by 600 μM paraquat (c) and 10 μM rotenone (d). Cells were incubated with peptides for 1 h at 37 °C, then 3 or 1 h with paraquat or rotenone, respectively. The data are shown as the means ± SE; *—p < 0.05, **—p < 0.01, #—p < 0.05 when comparing concentrations of the same peptide.
# (§2) Neuro-2a cells were incubated with peptides at concentrations of 0.01, 0.1, and 1 µM for 1 h. Then, paraquat (600 μM) or rotenone (10 µM) was added to each well and cells were incubated for 3 or 1 h, respectively. To study the ROS formation, the 2,7-dichlorodihydrofluorescein diacetate (H2DCF-DA) assay was performed according to the manufacturer’s instructions (Molecular Probes, Eugene, OR, USA). […]
# (§3) To determine the NO production, a 4-amino-5-methylamino-2′,7′-difluorofluorescein diacetate (DAF-FM) assay was performed according to the manufacturer’s instructions (Invitrogen, Carlsbad, CA, USA). […] In both cases, the fluorescence intensity was measured using a PHERAstar FS high-speed plate reader (BMG Labtech, Ortenberg, Germany) at λex = 485 nm and λem = 518 nm. […]
# Neuro-2a cells [4] = experiment: Rotenone-induced ROS formation (H2DCF-DA); type: cell-based, murine; conditions: peptide 0.01 μM, 10 μM rotenone 1 h, means ± SE
# Experimental: as §1, §2, §3
# trypsin = target: T1, trypsin (Bos taurus, UniProt P00760); conditions: cited from earlier work
# T1 sequence (P00760 24-246): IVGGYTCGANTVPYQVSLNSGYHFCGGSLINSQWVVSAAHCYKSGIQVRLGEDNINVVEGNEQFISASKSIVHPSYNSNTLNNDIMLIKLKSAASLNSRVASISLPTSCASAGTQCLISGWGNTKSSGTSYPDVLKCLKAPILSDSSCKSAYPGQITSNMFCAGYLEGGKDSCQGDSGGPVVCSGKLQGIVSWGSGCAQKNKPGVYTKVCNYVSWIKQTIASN
# Experimental: As mentioned above, the main function of Kunitz-type peptides is the inhibition of proteases, in particular trypsin. To confirm the bioactive conformation of HCIQ1c9, its ability to inhibit trypsin was determined. […] The decrease in trypsin-inhibitory activity of HCIQ1c9 and HCIQ4c7 in comparison with HCIQ2c1 is probably associated ... || The active spatial conformation of the peptides was also confirmed by the presence of trypsin-inhibitory activity. […] Thus, both negatively and positively charged residues at position P1’ led to decreases in the trypsin-inhibitory activity of the peptides, with HCIQ4c7 beings a stronger trypsin inhibitor than HCIQ1c9. This was due to the residue Glu17, which can make additional contact with ...
substance,measurement,setting,value
"HCIQ2c1: recombinant Kunitz-type peptide from Heteractis crispa, UniProtKB ID A0A6B7FBD3 (IQGNICSEPKKVGRCRGSFPRFYFDSETGKCTPFIYGGCGGNGNNFETLHACRAICRA; UniProt A0A6B7FBD3 28-85, looked up)",CD spectral change on further heating,"[1]; 100 °C, deionized water, 20–25 min",decreased positive peaks at 193 nm
same,thermostability: retains conformation and biological activity until,[1]; CD spectra and residual trypsin-inhibitory activity,90–100 °C
same,CD spectrum: no significant changes after heating until,"[1]; deionized water, 25–100 °C for 20–25 min, 190–240 nm",90 °C
same,influence on viability of paraquat-treated cells,Neuro-2a cells [2],did not influence the viability
same,decrease in paraquat-induced ROS level,Neuro-2a cells [3],30.7 ± 1.8%
same,decrease in rotenone-induced ROS level,Neuro-2a cells [4],22.0 ± 7.3%
same,pKi,"trypsin; as shown previously, ref not printed at place, read-out: inhibited trypsin at (order of magnitude)",~8.00
same,pKi,trypsin; read-out: trypsin inhibitory constant (Ki),7.28
